The values below come from patent US20250129166A1 (Five Prime, published 2025).

Changes are numbered by the printed parent chain. Names and notes keep the numbering of the source.

T1: hVISTA multimer: monobiotinylated hVISTA ECD (Phe 33-Ala 194, Accession #AAH20568, polyhistidine) loaded on … (human, UniProt Q9H7M9 33-194, limits assumed, monobiotinylated; loaded at a 28:1 molar ratio onto PE-conjugated streptavidin dextramers)
T1 construct: also called hVISTA-loaded dextramers; recombinant VISTA multimer
T1 sequence (looked up): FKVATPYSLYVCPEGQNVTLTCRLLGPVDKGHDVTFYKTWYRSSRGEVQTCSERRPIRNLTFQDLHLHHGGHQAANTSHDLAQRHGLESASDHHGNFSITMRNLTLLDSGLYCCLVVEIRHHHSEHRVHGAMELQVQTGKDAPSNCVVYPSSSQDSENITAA

B1: P1-061029.IgG1.3 (antibody)
heavy: EVQLVESGGGLVQPGKSLRLSCAASGFTLDDYAMHWVRQAPGKGLEWVSGINWNSANIGYADSVKGRFTISRDNAKNSLYLQMNSLRTEDTALYYCAKVPGYSGGWIDAFDVWGQGTMVTVSSASTKGPSVFPLAPSSKSTSGGTAALGCLVKDYFPEPVTVSWNSGALTSGVHTFPAVLQSSGLYSLSSVVTVPSSSLGTQTYICNVNHKPSNTKVDKRVEPKSCDKTHTCPPCPAPEAEGAPSVFLFPPKPKDTLMISRTPEVTCVVVDVSHEDPEVKFNWYVDGVEVHNAKTKPREEQYNSTYRVVSVLTVLHQDWLNGKEYKCKVSNKALPAPIEKTISKAKGQPREPQVYTLPPSREEMTKNQVSLTCLVKGFYPSDIAVEWESNGQPENNYKTTPPVLDSDGSFFLYSKLTVDKSRWQQGNVFSCSVMHEALHNHYTQKSLSLSPG
light: not shown
notes: IgG1.3 = effectorless IgG1 (L234A, L235E, G237A); also called P1-061029 (parent); P1-061029 hIgG1.3f
B2: P1-068761.IgG1.3 (antibody)
heavy: B1 heavy with D30E, Y32E, A56E, N57E, G104H, F110E
light: not shown
notes: IgG1.3; also called P1-068761 hIgG1.3f; P1-0687617
B3: P1-070916 (P1-068767_D52N_E55A) IgG1.3 (antibody, V domains shown)
VH: EVQLVESGGGLVQPGKSLRLSCAASGFTLEDYAMHWVRQAPGKGLEWVSGINWNSANIGYADSVKGRFTISRDNAKNSLYLQMNSLRTEDTALYYCAKVPGYSGGWIDAEDDWGQGTMVTVSS
VL: not shown
notes: IgG1.3
B4: P1-068767_E30D_E55A (antibody, human IgG1, kappa, V domains shown)
VH: B3 VH with E30D, N52D
VL: not shown
notes: also called P1-070922
B5: P1-070906 (P1-068767_D52N) IgG1.3 (antibody, V domains shown)
VH: B3 VH with A56E
VL: not shown
notes: IgG1.3
B6: P1-070908 (P1-068767_E55A) IgG1.3 (antibody, V domains shown)
VH: B3 VH with N52D
VL: not shown
notes: IgG1.3
B7: P1-068767_D102V (antibody, human IgG1, kappa, V domains shown)
VH: B3 VH with N52D, A56E, D112V
VL: not shown
notes: also called P1-070912
B8: P1-068767_D52N_D102V (antibody, human IgG1, kappa, V domains shown)
VH: B3 VH with A56E, D112V
VL: not shown
notes: also called P1-070930
B9: P1-068767_E100fF_D102V (antibody, human IgG1, kappa, V domains shown)
VH: B3 VH with N52D, A56E, E110F, D112V
VL: not shown
notes: also called P1-070920
B10: P1-068767_D52N_E100fF (antibody, human IgG1, kappa, V domains shown)
VH: B3 VH with A56E, E110F
VL: not shown
notes: also called P1-070928
B11: P1-068767_E30D (antibody, human IgG1, kappa, V domains shown)
VH: B3 VH with E30D, N52D, A56E
VL: not shown
notes: also called P1-070904
B12: P1-068767_E30D_D52N (antibody, human IgG1, kappa, V domains shown)
VH: B3 VH with E30D, A56E
VL: not shown
notes: also called P1-070914
B13: P1-068767_E30D_D102V (antibody, human IgG1, kappa, V domains shown)
VH: B3 VH with E30D, N52D, A56E, D112V
VL: not shown
notes: also called P1-070926
B14: P1-068767_E55A_D102V (antibody, human IgG1, kappa, V domains shown)
VH: B3 VH with N52D, D112V
VL: not shown
notes: also called P1-070932
B15: P1-068767_E55A_E100fF (antibody, human IgG1, kappa, V domains shown)
VH: B3 VH with N52D, E110F
VL: not shown
notes: also called P1-070918
B16: P1-068767_E100fF (antibody, human IgG1, kappa, V domains shown)
VH: B3 VH with N52D, A56E, E110F
VL: not shown
notes: also called P1-070910
B17: P1-068767_E30D_E100fF (antibody, human IgG1, kappa, V domains shown)
VH: B3 VH with E30D, N52D, A56E, E110F
VL: not shown
notes: also called P1-070924

The first experiment deals with T2, monovalent hVISTA-ECD (amino acids 32-193 of SEQ ID NO: 1 with a 7xHis tail) (human, UniProt Q9H7M9 33-193).
T2 construct: also called huVISTA-His; human VISTA-ECD
Description: SPR, mAb on Protein A, 37C, pH 6.0. As to the method: (§1) Binding of several preparations of each of the '029 progeny clones and of the parent '029 antibodies, formatted as IgG1.3 antibodies, to human VISTA at pH 6.0 and 7.4 was measured by Surface plasmon resonance (SPR). SPR analysis was performed to measure koff and KD binding affinity measurements for VISTA Abs at acidic and neutral pHs using a Biacore® T100 instrument (GE Healthcare). Protein A (ThermoFisher Scientific catalog #21181) was diluted to 20 μg/ml in 10 mM sodium acetate pH 4.5 and immobilized onto flow cells of a CM5 biosensor following the manufacturer's amine coupling protocol (GE Healthcare), targeting 2,000 RU immobilization density of Protein A per flow cell. SPR experiments were conducted at 37° C. using PBST (137 mM sodium chloride, 2.7 mM potassium chloride, 10 mM phosphate buffer, 0.05% Tween® 20) running buffer at pH 7.4 and 6.0. Antibodies were diluted to 25 nM in PBST pH 7.4, and were captured across active biosensor flow cells at 5 ul/min for 60 seconds. A concentration series of 50-5 nM monovalent hVISTA-ECD (SEQ ID NO: 325) was prepared in pH 7.4 and 6.0 running buffers, and was injected over the captured antibodies at 40 ul/min to measure association and dissociation. Two 15 second injections of 10 mM glycine pH 1.5 were used to regenerate the Protein A capture surface between assay cycles. Rate constants ka (kₒₙ) and kd (koff) were derived from reference flow cell and 0 nM blank-subtracted sensorgrams, and were fit to a 1:1 binding model in Biacore® T200 Evaluation Software v.2.0. The affinity constant, KD was calculated as the ratio of rate constants koff/kₒₙ for each VISTA antibody.
A general note: SPR reads the build-up and loss of mass on a sensor chip optically.
As for B1, the affinity, expressed as Kd, was 7.4 nM and the kon (usually a measure of how fast the partners come together) came out at 780000 M⁻¹ s⁻¹.
In the case of B2, binding was put at a Kd of 5.5 nM and the kon was found to be 280000 M⁻¹ s⁻¹.

In another experiment the target is T2, monovalent hVISTA-ECD (amino acids …). Description: SPR, mAb captured on Protein A, hVISTA-ECD analyte, 37 C, pH 6.7. As to the method: (§2) Binding kinetics were measured using a Biacore® T100 instrument (GE Healthcare). Protein A (ThermoFisher Scientific catalog #21181) was diluted to 20 μg/ml in 10 mM sodium acetate pH 4.5 and immobilized onto flow cells of a CM5 biosensor following the manufacturer's amine coupling protocol (GE Healthcare), targeting 2,000 RU immobilization density of Protein A per flow cell. The assay was conducted at 37° C. using PBST (137 mM sodium chloride, 2.7 mM potassium chloride, 10 mM phosphate buffer, 0.05% Tween 20) running buffer at pH 7.4, 6.7 and 6.0. Antibodies were diluted to 25 nM in PBST pH 7.4, and were captured across active biosensor flow cells at 5 ul/min for 40 seconds. A concentration series of 100-10 nM monovalent hVISTA-ECD (SEQ ID NO: 325) was prepared in pH 7.4, 6.7 and 6.0 running buffers, and was injected over the captured antibodies at 40 ul/min to measure association and dissociation. Two 15 second injections of 10 mM glycine pH 1.5 were used to regenerate the Protein A capture surface between assay cycles. Rate constants ka (kon) and kd (koff) were derived from reference flow cell and 0 nM blank-subtracted sensorgrams, and were fit to a 1:1 binding model in Biacore® T200 Evaluation Software v.2.0.
(§3) The affinity constant, KD was calculated as the ratio of rate constants koff/kₒₙ for each VISTA antibody. The % Rmax was calculated to compare how pH affects an antibody's binding capacity for VISTA, and represents the measured maximal VISTA binding response relative to the expected maximal VISTA binding response. The % Rmax is defined as the ratio of the reference-subtracted ‘binding’ report point response at the end of the 100 nM VISTA injection for each antibody (Rmax) relative to the expected VISTA binding response (Rexp). Rexp is calculated as Rexp=[(VISTA-ECD molecular weight/mAb molecular weight)×(mAb ‘capture’ report point response (RUs)]×2 binding sites per mAb.
As for B1, the koff (in general, a measure of how fast the partners let go of each other) came out at 0.0044 s⁻¹.
The molecule B2 registered a koff of 0.0066 s⁻¹. Compared with the last molecule, the koff is about 1.5-fold higher.

For a further experiment the target is unchanged. Description: SPR, mAb captured on Protein A, hVISTA-ECD analyte, 37 C, pH 6.0. As to the method:
as §2, §3
Regarding B1, the koff is 0.0082 s⁻¹.
As for B3, the koff is 0.0015 s⁻¹.
B4 came in with a koff of 0.0035 s⁻¹.
In turn, B5 returned an off-rate (koff) of 0.0015 s⁻¹.
The same measure, in the same setting: for B6 the value was 0.0023 s⁻¹.
Molecule B7 yielded a koff of 0.002 s⁻¹.
In turn, B8 returned a koff of 0.0012 s⁻¹.
Regarding B9, the koff is 0.0082 s⁻¹.
On the same count and under the same terms, for B10 the value was 0.066 s⁻¹; for B11, 0.0032 s⁻¹; for B12, 0.0023 s⁻¹.
The same measure, in the same setting: then B13, with 0.003 s⁻¹; and B14, with 0.002 s⁻¹.
For the molecule B15, the koff stood at 0.013 s⁻¹.

A further experiment has the same target. Kind of experiment: SPR, mAb on Protein A, 37C, pH 6.0; pH 6.0. As to the method:
as §1
Regarding B3, binding was characterised by a dissociation constant (Kd) of 7.4 nM, the koff is 0.0017 s⁻¹ and the kon amounted to 230000 M⁻¹ s⁻¹.
The matching figures for B5: 6.7 nM, 0.0016 s⁻¹ and 240000 M⁻¹ s⁻¹.
Regarding B6, the Kd – broadly, a measure of binding affinity in units of concentration – was 11 nM; the koff is 0.0025 s⁻¹; the kon was 220000 M⁻¹ s⁻¹.

The next experiment shares this target. Description: SPR, mAb captured on Protein A, hVISTA-ECD analyte, 37 C, pH 7.4. As to the method: as §2, §3
The molecule B7 displayed a koff of 0.0092 s⁻¹.
For the molecule B8, the dissociation rate constant (koff) is 0.0067 s⁻¹.
The same measure, in the same setting: for B9 the value was 0.0083 s⁻¹; for B13, 0.011 s⁻¹.
B14 yielded a koff of 0.01 s⁻¹.

A further experiment shares this target. Description: SPR, mAb on Protein A, 37C, pH 7.4. Here is the method:
as §1
For B1, the Kd is 36 nM and the kon amounted to 180000 M⁻¹ s⁻¹.

For a further experiment the target is unchanged. Kind of experiment: SPR, mAb captured on Protein A, hVISTA-ECD analyte, 37 C, pH 6.0. This is another data set of the same source. Here is the method:
as §2, §3
B1 returned a koff of 0.0082 s⁻¹.

Another experiment has the same target. Kind of experiment: SPR, mAb captured on Protein A, hVISTA-ECD analyte, 37 C, pH 6.7. The source holds these as a separate data set. Here is the method: as §2, §3
For the molecule B1, the koff was 0.0044 s⁻¹.
The molecule B3 registered a dissociation rate constant (koff) of 0.0055 s⁻¹.
B5 registered a koff of 0.0067 s⁻¹.
On to B16, for which the koff is 0.026 s⁻¹.
In turn, B6 displayed a dissociation rate constant (koff) of 0.0085 s⁻¹.
In turn, B7 registered a koff of 0.0028 s⁻¹. Against the preceding molecule, the koff is about 3-fold lower.
The same measure, in the same setting: for B8 the value was 0.0018 s⁻¹.
B9: the koff came out at 0.0047 s⁻¹.
B17 yielded a koff of 0.027 s⁻¹.
Turning to B13, the koff was 0.0035 s⁻¹.
Molecule B14 displayed a koff of 0.0031 s⁻¹.

For the next experiment, the target named is T1, hVISTA multimer: monobiotinylated …. Description: blocking of VISTA multimer binding to activated human CD4+ T cells, flow cytometry, pH 6.0. As to the method:
As a control, activated CD4+ T cells were stained with PE-conjugated streptavidin dextramers that were not loaded with hVISTA. The stained cells were washed with HBSS+MES and acquired on a flow cytometer. Data were analyzed using FlowJo™ software (BD Biosciences). […] Left, from darker gray to lighter, the filled histograms depict binding at pH 7.0, 6.5, 6.4, 6.3, 6.1, and 6.0. Some histograms are labeled with their corresponding pH. Non-VISTA control multimer binding at pH 6.0 is shown as the unfilled histogram. Right, graphed PE mean fluorescence intensities (MFI) of CD4+ T cells stained with hVISTA-loaded dextramers (circles) or with non-loaded dextramers (triangles) at various pH.
This blocking assay was performed as described in Example 4.
Background: Flow cytometry measures light scatter and fluorescence of single cells or particles in a stream.
Turning to B1, the “IC50 (read off the curve)” value was around 0.05 µg/mL.
Consider B2, for which the “IC50 (read off the curve)” value is around 0.03 µg/mL.
